Source: article PMC6211538

Tests used:
[1] = biological target: AMPA receptor GluA2 from rat with deletion of the disordered intracellular C-terminal domain (GluA2cryst) (rat) (UniProt P19491); assay: small-angle neutron scattering (SANS), molecular weight by Fischer analysis; with 10 mM AMPA, pH 5.5; 0.17 mg/ml (0.46 uM) GluA2 in D2O-based buffer with 0.5 mM matched-out deuterated DDM; 10°C; oligomeric state from MW against the construct's 368 kDa
[2] = biological target: AMPA receptor GluA2 from rat with deletion of the disordered intracellular C-terminal domain (GluA2cryst) (rat) (UniProt P19491); assay: small-angle neutron scattering (SANS), molecular weight by Fischer analysis; resting state (apo); 0.20 mg/ml (0.54 uM) GluA2 in D2O-based buffer, 20 mM Tris-DCl pH 7.5, 100 mM NaCl, 0.5 mM matched-out deuterated DDM; 10°C; oligomeric state from MW against the construct's 368 kDa
[3] = biological target: AMPA receptor GluA2 from rat with deletion of the disordered intracellular C-terminal domain (GluA2cryst) (rat) (UniProt P19491); assay: small-angle neutron scattering (SANS), molecular weight by Fischer analysis; with 1 mM GYKI-53655; 0.31 mg/ml (0.84 uM) GluA2 in D2O-based buffer with 0.5 mM matched-out deuterated DDM; 10°C; oligomeric state from MW against the construct's 368 kDa
[4] = biological target: AMPA receptor GluA2 from rat with deletion of the disordered intracellular C-terminal domain (GluA2cryst) (rat) (UniProt P19491); assay: small-angle neutron scattering (SANS), molecular weight by Fischer analysis; with 1 mM AMPA, pH 7.5; 0.31 mg/ml (0.84 uM) GluA2 in D2O-based buffer with 0.5 mM matched-out deuterated DDM; 10°C; oligomeric state from MW against the construct's 368 kDa

Measured: stoichiometry N

AMPA receptor GluA2 from rat with deletion of the disordered intracellular C-terminal domain (GluA2cryst) (from UniProt P19491 22-883)
4: all assays above
